The target in the experiment is T1, Wingless (Wg), the Drosophila homolog of Wnt-1 (Drosophila, UniProt P09615 18-468).
T1 construct: mature; Used as unpurified conditioned medium in the ELISAs
T1 sequence (looked up): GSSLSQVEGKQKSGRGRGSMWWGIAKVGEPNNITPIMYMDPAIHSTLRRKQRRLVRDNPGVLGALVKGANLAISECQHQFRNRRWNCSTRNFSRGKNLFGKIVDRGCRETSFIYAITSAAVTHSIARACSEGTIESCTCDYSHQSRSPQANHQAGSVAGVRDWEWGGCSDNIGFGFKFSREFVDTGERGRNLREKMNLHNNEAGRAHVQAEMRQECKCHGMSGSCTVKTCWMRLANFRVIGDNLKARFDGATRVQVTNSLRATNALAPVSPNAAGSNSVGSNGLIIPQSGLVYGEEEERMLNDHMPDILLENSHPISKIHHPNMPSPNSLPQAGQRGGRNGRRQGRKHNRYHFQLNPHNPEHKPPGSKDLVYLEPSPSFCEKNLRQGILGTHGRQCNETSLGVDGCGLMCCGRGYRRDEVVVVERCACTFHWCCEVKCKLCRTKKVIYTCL
Put plainly: ELISA: FRP coated at 100 ng/well, Wg-containing S2 conditioned medium, detection with anti-Wg antibody. The source says: As an alternative, cell-free systems to study the binding of FRP and Wnts were developed. These systems have the advantage of simplicity, as the profile of endogenous Frizzled/FRP/Wnt expression would not be an issue. Moreover, experiments now can be performed with purified recombinant FRP. One model system disclosed in detail below makes use of an ELISA type of format. Microtiter wells are first coated with purified FRP, and then blocked with a large excess of bovine serum albumin (BSA). To minimize the problems associated with solubilizing Wnts, initial studies focused on studying FRP binding to Wingless (Wg) because an expression system is available that releases Wg into conditioned medium. Van Leeuwen, et al., Nature 368:342–344 (1994). Although expression of a heat shock-Wg construct in transfected S2 insect cells results in only a small fraction of recombinant Wg in the media, it is sufficient for binding studies and obviates the need for detergents or other agents to extract the protein from cell surfaces or extracellular matrix. […] After washing, the wells are sequentially incubated with antibody to Wg, secondary antiserum (against the Wg antibody) conjugated to alkaline phosphatase, and p-nitrophenol phosphate. […]
FIG. 13 illustrates the binding of FRP and Wg. […] Color development, monitored at 405 nm, was indicative of Wg binding in the well.

B1: human Frizzled-related protein (FRP) (receptor)
chain: VGSASEYDYVSFQSDIGPYQSGRFYTKPPQCVDIPADLRLCHNVGYKKMVLPNLLEHETMAEVKQQASSWVPLLNKNCHAGTQVFLCSLFAPVCLDRPIYPCRWLCEAVRDSCEPVMQFFGFYWPEMLKCDKFPEGDVCIAMTPPNATEASKPQGTTVCPPCDNELKSEAIIEHLCASEFALRMKIKEVKKENGDKKIVPKKKKPLKLGPIKKKDLKKLVLYLKNGADCPCHQLDNLSHHFLIMGRKVKSQYLLTAIHKWDKKNKEFKNFMKKMKNHECPTFQSVFK
notes: The natural protein purified from M426 medium began 11 residues further downstream (residue 38), with a second N-terminus three residues later; The N-terminus of the recombinant protein is not reported; In the ELISAs it was untagged full-length FRP purified from the medium of MDCK cells transfected with pcDNA3.1(+); also called hFRP; recombinant FRP
Take B1: the binding result is reported as “binds”.

These data come from patent publication US7183377 (US Dept. of Health and Human Services, dated 2007).
